Results published in patent US20250320294A1.
Where two headings read alike, the source gives them in different places.

Assays:
[1] = biological target: human-CD45RO-ECD-His (human) (UniProt P08575); experiment: SPR, captured human-CD45RO-ECD-His, 1:1 binding
[2] = biological target: human-CD45RO-ECD-His (human) (UniProt P08575); experiment: ELISA, human-CD45RO-ECD-His-coated plates
[3] = biological target: human-CD45RO-ECD-His (human) (UniProt P08575); experiment: ELISA, human-CD45RO-ECD-His-coated plates; remark: listed apart in the source

Kd [1]: 433 nM
koff [1]: 0.00373 s⁻¹
kon [1]: 8610 M⁻¹ s⁻¹
EC50 [2]: 0.328 nM
EC50 [3]: 0.544 nM
Substance: CD45RO Monoclonal Antibody (UCHL1) (eBioscience™)
